Experimental data from article PMC4384115, “Molecular Recognition of PTS-1 Cargo Proteins by Pex5p: Implications for Protein Mistargeting in Primary Hyperoxaluria” (Biomolecules, 2015).
Where a chain is given by its changes, count along the chain named. Numbers in names are those of the source.

B1: AGT-LRM: human AGT variant p.P11L/p.G170R/p.I340M, mistargeting PH1 variant (protein, UniProt P21549 1-392, looked up, variant P11L G170R I340M)
Alanine--glyoxylate …: MASHKLLVTPLKALLKPLSIPNQLLLGPGPSNLPPRIMAAGGLQMIGSMSKDMYQIMDEIKEGIQYVFQTRNPLTLVISGSGHCALEAALVNVLEPGDSFLVGANGIWGQRAVDIGERIGARVHPMTKDPGGHYTLQEVEEGLAQHKPVLLFLTHGESSTGVLQPLDGFRELCHRYKCLLLVDSVASLGGTPLYMDRQGIDILYSGSQKALNAPPGTSLISFSDKAKKKMYSRKTKPFSFYLDIKWLANFWGCDDQPRMYHHTIPVISLYSLRESLALIAEQGLENSWRQHREAAAYLHGRLQALGLQLFVKDPALRLPTVTTVAVPAGYDWRDIVSYVMDHFDIEIMGGLGPSTGKVLRIGLLGCNATRENVDRVTEALRAALQHCPKKKL
B2: AGT-LRM-SKL: AGT-LRM with PTS1 mutated to the consensus –SKL C-terminal tripeptide (protein, UniProt P21549 1-392, looked up, variant P11L G170R I340M K390S L392L)
Alanine--glyoxylate …: B1 Alanine--glyoxylate … with K390S

Legend:
[1] = system: CHO cells; experiment: Confocal immunofluorescence colocalization of AGT with mitochondria (Mitotracker) in transfected CHO cells; assay type: cell-based, Chinese hamster; conditions: transiently transfected CHO cells; for Pearson Rr, AGT + Mitotracker: fixed 72 h after transfection, mean ± S.E.
Procedure: (§1) Chinese hamster ovary (CHO) cells (ATTC, Rockville, MD USA) were grown in alpha-minimal essential medium (α-MEM, Lonza, Köln, Germany) supplemented with glutamine, penicillin/streptomycin and 5% fetal bovine serum. Cell transfections were performed using AGT cDNA variants (AGT-LRM or AGT-LRM-SKL) subcloned in pCIneo plasmids (Promega) with Transfast reagent (Promega, Madison, WI, USA), following manufacturer’s guidelines. After 24 h, cells were passed to plates containing 13 mm glass coverslips for immunofluorescence studies. Mitochondria in half the coverslips were labeled by incubation with Mitotracker (CMXRos, Invitrogen, Carlsbad, CA, USA) at the end of the culture. Cells were fixed with 2% paraformaldehyde 72 h after transfection and immunofluorescence was performed as previously described. Images were acquired with a laser scanning confocal microscope (Olympus Inverted IX81, Tokyo, Japan) using a 60× objective with immersion oil.
(§2) For quantitative immune-colocalization, the system was optimized to detect two fluorescent signals in one specimen: one in the green channel detector for protein of interest AGT-LRM or AGT-LRM-SKL and the other in the red channel, for either mitochondria labeled with mitotracker or peroxisomes labeled with peroxisomal membrane protein 70 (PMP70) antibody. When the two were seen to overlap (colocalization), it was assumed to be due to fluorescently labeled molecules binding to very close or indeed identical spatial positions. Colocalization events (or the lack thereof) were analyzed quantitatively with FluoView software (Olympus, Tokyo, Japan) and ImageJ software (NIH, Bethesda, MD, USA) with the JACoP plugin, based on a global statistic approach that conducts an intensity correlation coefficient-based examination. The Fisher transformation was applied to data obtained from ImageJ as well when calculating the mean values of colocalization coefficients and constructing the respective 95% confidence intervals. Descriptive statistical analysis of colocalization parameters (Pearson’s coefficient, Manders’ overlap coefficient and split Manders’ coefficients) was performed.

[2] = system: CHO cells; experiment: Confocal immunofluorescence colocalization of AGT with peroxisomes (PMP70) in transfected CHO cells; assay type: cell-based, Chinese hamster; conditions: for amount of protein localized in peroxisomes / Pearson Rr, AGT + PMP70: transiently transfected CHO cells; for Pearson Rr, AGT + PMP70: fixed 72 h after transfection
Procedure: as §1, §2

Molecule | colocalization with mitotracker in the mitochondria [1] [%] | Pearson Rr, AGT + Mitotracker [1] | Pearson Rr, AGT + Mitotracker ([1]; SEM) | % Coloc (Manders' m), AGT + PMP70 ([2]; CHO cells, mean ± S.E., given as fraction, split Manders' M1 in situation 2, Manders' overlap R in situation 4, SEM) | amount of protein localized in peroxisomes [2] [%] | Pearson Rr, AGT + PMP70 ([2]; mean ± S.E.) | Pearson Rr, AGT + PMP70 ([2]; mean ± S.E., SEM)
B1 | 92 | 0.90 | 0.90 ± 0.12 | 0.17 ± 0.15 | 17 | 0.39 | 0.39 ± 0.15
B2 | 40 | 0.47 | – | – | 84 | 0.79 | –
